According to article PMC6863848, “Selection of an optimal macrocyclic chelator improves the imaging of prostate cancer using cobalt-labeled GRPR antagonist RM26” (Scientific Reports, 2019):

Assays:
[1] = Ex vivo biodistribution and tumor targeting; settings: female, BALB/c nu/nu, mouse, iv, 45 pmol per mouse, total radioactivity
Experimental: (§1) Euthanasia was performed by intraperitoneal injection of Ketalar-Rompun solution (10 mg/mL Ketalar and 1 mg/mL Rompun; 20 µL/g body weight) and all efforts were made to minimize suffering. Groups of 4 mice per data point were used.
(§2) Blood samples were collected by heart puncture. Lung, liver, spleen, pancreas, stomach, small intestines, kidneys, muscle, bone, and the rest of gastrointestinal tract with its content were collected, weighed and measured in a gamma-counter. The organ uptake values were expressed as a percentage of injected dose per gram of tissue weight (%ID/g) with the exception of gastrointestinal tract and the remaining carcass, which were calculated as %ID per whole sample.
(§3) The biodistribution and targeting properties of ^57Co-X-PEG2-RM26 were evaluated in female BALB/c nu/nu mice (weight: 18 ± 2 g). GRPR-expressing xenografts were established by subcutaneous injection of 8 × 10^6 PC-3 cells/mouse, 2 weeks prior to the experiment. At the time of experiment, the mice were intravenously injected with ^57Co-X-PEG2-RM26 (25 kBq, 45 pmol in 100 µL PBS per mouse) and were euthanized 3 and 24 h pi.

[2] = system: PC-3 xenografted BALB/c nu/nu mice; assay: Ex vivo biodistribution and tumor targeting; settings: 24 h pi
Experimental: as §1, §2, §3

in vivo = settings: female, BALB/c nu/nu, mouse, iv, 45 pmol per mouse, total radioactivity
Experimental: as §1, §2, §3

NMRI mice = settings: 25 kBq, 3 and 24 h pi
Experimental: as §2

[3] = blood, Blood uptake, PC-3-xenografted BALB/c nu/nu mice, iv 25 kBq/45 pmol, 3 h pi, 4 mice per data point
[4] = blood, Blood uptake, PC-3-xenografted BALB/c nu/nu mice, iv 25 kBq/45 pmol, 24 h pi, 4 mice per data point
[5] = bone, Bone uptake, PC-3-xenografted BALB/c nu/nu mice, iv 25 kBq/45 pmol, 3 h pi, 4 mice per data point
[6] = bone, Bone uptake, PC-3-xenografted BALB/c nu/nu mice, iv 25 kBq/45 pmol, 24 h pi, 4 mice per data point
[7] = gastrointestinal tract with content (whole sample)
[8] = kidneys, Kidneys uptake, PC-3-xenografted BALB/c nu/nu mice, iv 25 kBq/45 pmol, 3 h pi, 4 mice per data point
[9] = liver, Liver uptake, PC-3-xenografted BALB/c nu/nu mice, iv 25 kBq/45 pmol, 3 h pi, 4 mice per data point
[10] = liver, Liver uptake, PC-3-xenografted BALB/c nu/nu mice, iv 25 kBq/45 pmol, 24 h pi, 4 mice per data point
[11] = lung, Lung uptake, PC-3-xenografted BALB/c nu/nu mice, iv 25 kBq/45 pmol, 3 h pi, 4 mice per data point
[12] = lung, Lung uptake, PC-3-xenografted BALB/c nu/nu mice, iv 25 kBq/45 pmol, 24 h pi, 4 mice per data point
[13] = muscle, Muscle uptake, PC-3-xenografted BALB/c nu/nu mice, iv 25 kBq/45 pmol, 24 h pi, 4 mice per data point
[14] = pancreas, Pancreas uptake, PC-3-xenografted BALB/c nu/nu mice, iv 25 kBq/45 pmol, 3 h pi, 4 mice per data point
[15] = pancreas, Pancreas uptake, PC-3-xenografted BALB/c nu/nu mice, iv 25 kBq/45 pmol, 24 h pi, 4 mice per data point
[16] = remaining carcass (whole sample)
[17] = small intestine, Sm. Int. uptake, PC-3-xenografted BALB/c nu/nu mice, iv 25 kBq/45 pmol, 3 h pi, 4 mice per data point
[18] = small intestine, Sm. Int. uptake, PC-3-xenografted BALB/c nu/nu mice, iv 25 kBq/45 pmol, 24 h pi, 4 mice per data point
[19] = spleen, Spleen uptake, PC-3-xenografted BALB/c nu/nu mice, iv 25 kBq/45 pmol, 3 h pi, 4 mice per data point
[20] = spleen, Spleen uptake, PC-3-xenografted BALB/c nu/nu mice, iv 25 kBq/45 pmol, 24 h pi, 4 mice per data point
[21] = stomach, Stomach uptake, PC-3-xenografted BALB/c nu/nu mice, iv 25 kBq/45 pmol, 3 h pi, 4 mice per data point
[22] = stomach, Stomach uptake, PC-3-xenografted BALB/c nu/nu mice, iv 25 kBq/45 pmol, 24 h pi, 4 mice per data point
[23] = tumor, Tumor uptake, PC-3-xenografted BALB/c nu/nu mice, iv 25 kBq/45 pmol, 3 h pi, 4 mice per data point
[24] = tumor, Tumor uptake, PC-3-xenografted BALB/c nu/nu mice, iv 25 kBq/45 pmol, 24 h pi, 4 mice per data point
[25] = muscle, Muscle uptake, PC-3-xenografted BALB/c nu/nu mice, iv 25 kBq/45 pmol, 3 h pi, 4 mice per data point
[26] = kidneys, Kidneys uptake, PC-3-xenografted BALB/c nu/nu mice, iv 25 kBq/45 pmol, 24 h pi, 4 mice per data point

| Compound | tissue uptake at 3 h [1, 3] [%ID/g] | tissue uptake at 24 h [1, 4] [%ID/g] | tissue uptake at 3 h [1, 5] [%ID/g] | tissue uptake at 24 h [1, 6] [%ID/g] | tissue uptake dose at 3 h [1, 7] [%ID] | tissue uptake dose at 24 h [1, 7] [%ID] | tissue uptake at 3 h [1, 8] [%ID/g] | tissue uptake at 3 h [1, 9] [%ID/g] | tissue uptake at 24 h [1, 10] [%ID/g] | tissue uptake at 3 h [1, 11] [%ID/g] | tissue uptake at 24 h [1, 12] [%ID/g] | tissue uptake at 24 h [1, 13] [%ID/g] | tissue uptake at 24 h [1, 15] [%ID/g] | tissue uptake dose at 3 h [1, 16] [%ID] | tissue uptake dose at 24 h [1, 16] [%ID] | tissue uptake at 3 h [1, 17] [%ID/g] | tissue uptake at 24 h [1, 20] [%ID/g] | tissue uptake at 3 h [1, 21] [%ID/g] | tissue uptake at 3 h [1, 23] [%ID/g] | tissue uptake at 24 h [1, 24] [%ID/g] | also measured |
| --- | --- | --- | --- | --- | --- | --- | --- | --- | --- | --- | --- | --- | --- | --- | --- | --- | --- | --- | --- | --- | --- |
| CC(C)C[C@H](NC(=O)C[C@H](O)[C@H](CC(C)C)NC(=O)[C@H](Cc1c[nH]cn1)NC(=O)CNC(=O)[C@@H](NC(=O)[C@H](C)NC(=O)[C@H](Cc1c[nH]c2ccccc12)NC(=O)[C@H](CCC(N)=O)NC(=O)[C@@H](Cc1ccccc1)NC(=O)COCCOCCNC(=O)CN1CCN(CC(=O)O)CCN(CC(=O)O)CCN(CC(=O)O)CC1)C(C)C)C(N)=O [DOTA] | 0.028 ± 0.006 | 0.007 ± 0.002 | 0.08 ± 0.03 | 0.09 ± 0.06 | 4.8 ± 0.1 | 0.21 ± 0.09 | 1.9 ± 0.3 | 0.078 ± 0.009 | 0.034 ± 0.003 | 0.06 ± 0.01 | 0.023 ± 0.004 | 0.02 ± 0.01 | 0.05 ± 0.01 | 0.9 ± 0.4 | 0.2 ± 0.1 | 0.9 ± 0.1 | 0.035 ± 0.006 | 2.1 ± 0.6 | 8.1 ± 0.6 | 4.4 ± 1.3 | tissue uptake dose at 3 h ([1]; gastrointestinal tract with contents): 5 %ID; tissue uptake at 24 h ([1]; kidneys): 0.8 ± 0.2 %ID/g; tissue uptake at 3 h ([1]; muscle): 0.4 ± 0.7 %ID/g; tissue uptake at 3 h [1, 14]: 2.5 ± 0.8 %ID/g; tissue uptake at 24 h [1, 18]: 0.06 ± 0.02 %ID/g; tissue uptake at 3 h [1, 19]: 0.09 ± 0.02 %ID/g; tissue uptake at 24 h [1, 22]: 0.06 ± 0.02 %ID/g; Tumor radioactivity, higher than other conjugates [2]: twofold higher |
| CC(C)C[C@H](NC(=O)C[C@H](O)[C@H](CC(C)C)NC(=O)[C@H](Cc1c[nH]cn1)NC(=O)CNC(=O)[C@@H](NC(=O)[C@H](C)NC(=O)[C@H](Cc1c[nH]c2ccccc12)NC(=O)[C@H](CCC(N)=O)NC(=O)[C@@H](Cc1ccccc1)NC(=O)COCCOCCNC(=O)CN1CCN(CC(=O)O)CCN(CC(=O)O)CC1)C(C)C)C(N)=O [NOTA] | 0.019 ± 0.004 | 0.006 ± 0.001 | 0.04 ± 0.04 | – | 0.6 ± 0.1 | 0.09 ± 0.03 | 0.93 ± 0.05 | – | 0.025 ± 0.005 | 0.065 ± 0.005 | 0.09 ± 0.15 | 0.011 ± 0.005 | 0.023 ± 0.002 | 0.6 ± 0.4 | 0.18 ± 0.06 | 0.098 ± 0.028 | 0.029 ± 0.004 | 0.3 ± 0.1 | 7.3 ± 1.3 | 2.1 ± 0.2 | tissue uptake at 24 h (in vivo; Bone uptake): 0.08 ± 0.05 %ID/g; tissue uptake at 24 h (in vivo; Kidneys uptake): 0.09 ± 0.03 %ID/g; tissue uptake at 3 h (in vivo; Liver uptake): 0.07 ± 0.004 %ID/g; tissue uptake at 3 h (in vivo; Pancreas uptake): 0.21 ± 0.052 %ID/g; tissue uptake at 24 h (in vivo; Sm. Int. uptake): 0.06 ± 0.03 %ID/g; tissue uptake at 3 h (in vivo; Spleen uptake): 0.05 ± 0.008 %ID/g; tissue uptake at 24 h (in vivo; Stomach uptake): 0.05 ± 0.03 %ID/g; tissue uptake at 3 h [1, 25]: 0.08 ± 0.1 %ID/g |
| CC(C)C[C@H](NC(=O)C[C@H](O)[C@H](CC(C)C)NC(=O)[C@H](Cc1c[nH]cn1)NC(=O)CNC(=O)[C@@H](NC(=O)[C@H](C)NC(=O)[C@H](Cc1c[nH]c2ccccc12)NC(=O)[C@H](CCC(N)=O)NC(=O)[C@@H](Cc1ccccc1)NC(=O)COCCOCCNC(=O)CCC(C(=O)O)N1CCN(CC(=O)O)CCN(CC(=O)O)CC1)C(C)C)C(N)=O (stereo partly drawn) [NODAGA] | 0.032 ± 0.009 | 0.006 ± 0.003 | 0.1 ± 0.2 | 0.007 ± 0.002 | 5 ± 1 | 0.3 ± 0.2 | 2.5 ± 0.8 | 0.08 ± 0.02 | 0.02 ± 0.01 | 0.05 ± 0.01 | 0.02 ± 0.01 | 0.006 ± 0.005 | 0.02 ± 0.03 | 1.3 ± 0.3 | 0.1 ± 0.1 | 0.3 ± 0.3 | 0.009 ± 0.002 | 0.39 ± 0.09 | 6.3 ± 1.2 | 2.3 ± 0.9 | tissue uptake at 24 h [1, 26]: 0.7 ± 0.4 %ID/g; tissue uptake at 3 h [1, 25]: 0.02 ± 0.01 %ID/g; tissue uptake at 3 h [1, 14]: 0.3 ± 0.2 %ID/g; tissue uptake at 24 h [1, 18]: 0.015 ± 0.007 %ID/g; tissue uptake at 3 h [1, 19]: 0.05 ± 0.02 %ID/g; tissue uptake at 24 h [1, 22]: 0.04 ± 0.01 %ID/g |
| CC(C)C[C@H](NC(=O)C[C@H](O)[C@H](CC(C)C)NC(=O)[C@H](Cc1c[nH]cn1)NC(=O)CNC(=O)[C@@H](NC(=O)[C@H](C)NC(=O)[C@H](Cc1c[nH]c2ccccc12)NC(=O)[C@H](CCC(N)=O)NC(=O)[C@@H](Cc1ccccc1)NC(=O)COCCOCCNC(=O)CCC(C(=O)O)N1CCN(CC(=O)O)CCN(CC(=O)O)CCN(CC(=O)O)CC1)C(C)C)C(N)=O (stereo partly drawn) [DOTAGA] | 0.02 ± 0.01 | 0.005 ± 0.002 | 0.02 ± 0.005 | 0.02 ± 0.03 | 1 ± 0.5 | 0.1 ± 0.1 | 3.5 ± 0.4 | 0.08 ± 0.02 | 0.04 ± 0.01 | 0.07 ± 0.03 | 0.02 ± 0.02 | 0.007 ± 0.007 | 0.028 ± 0.009 | 1.9 ± 0.9 | 0.3 ± 0.3 | 0.13 ± 0.05 | 0.016 ± 0.009 | 0.4 ± 0.3 | 6.9 ± 2.7 | 2.3 ± 0.7 | tissue uptake at 24 h [1, 26]: 1.8 ± 0.5 %ID/g; tissue uptake at 3 h [1, 25]: 0.04 ± 0.01 %ID/g; tissue uptake at 3 h [1, 14]: 0.4 ± 0.1 %ID/g; tissue uptake at 24 h [1, 18]: 0.02 ± 0.01 %ID/g; tissue uptake at 3 h [1, 19]: 0.08 ± 0.05 %ID/g; tissue uptake at 24 h [1, 22]: 0.018 ± 0.004 %ID/g; Kidney uptake, higher compared to NODAGA- and DOTA-containing analogues [2]: twofold higher |
| [57Co+2].[Cl-].[Cl-] [free cobalt, cobalt-57 chloride] | – | – | – | – | – | – | – | – | – | – | – | – | – | – | – | – | – | – | – | – | Biodistribution pattern (NMRI mice): Uniform activity distribution |
